Reference: publication PMC5383425, “Differential CLE peptide perception by plant receptors implicated from structural and functional analyses of TDIF-TDR interactions” (PLoS ONE, 2017)
Square brackets hold non-standard residues; d marks the D form. Ends that are not written are not given here. Hyp = O=C(O)[C@@H]1C[C@@H](O)CN1

Tests used:
Experiment in all cases: ITC; 0.5–1 mM peptide titrated into 10–40 μM ecdTDR; 25°C; 10 mM sodium citrate, 100 mM NaCl, pH 5.5; fitted to one set of binding sites; MicroCal Auto-iTC200
Details in all cases: both partners purified
ecdTDR R138A mutant = molecular target: T1, ecdTDR R138A mutant (Arabidopsis thaliana, UniProt Q9FII5 30-642, R138A)
T1 construct: TDR/PXY of A. thaliana, extracellular domain, residues 30-642; source: High Five insect cells (baculovirus), secreted, purified as the wild type (Ni-NTA, size-exclusion chromatography)
T1 sequence (looked up): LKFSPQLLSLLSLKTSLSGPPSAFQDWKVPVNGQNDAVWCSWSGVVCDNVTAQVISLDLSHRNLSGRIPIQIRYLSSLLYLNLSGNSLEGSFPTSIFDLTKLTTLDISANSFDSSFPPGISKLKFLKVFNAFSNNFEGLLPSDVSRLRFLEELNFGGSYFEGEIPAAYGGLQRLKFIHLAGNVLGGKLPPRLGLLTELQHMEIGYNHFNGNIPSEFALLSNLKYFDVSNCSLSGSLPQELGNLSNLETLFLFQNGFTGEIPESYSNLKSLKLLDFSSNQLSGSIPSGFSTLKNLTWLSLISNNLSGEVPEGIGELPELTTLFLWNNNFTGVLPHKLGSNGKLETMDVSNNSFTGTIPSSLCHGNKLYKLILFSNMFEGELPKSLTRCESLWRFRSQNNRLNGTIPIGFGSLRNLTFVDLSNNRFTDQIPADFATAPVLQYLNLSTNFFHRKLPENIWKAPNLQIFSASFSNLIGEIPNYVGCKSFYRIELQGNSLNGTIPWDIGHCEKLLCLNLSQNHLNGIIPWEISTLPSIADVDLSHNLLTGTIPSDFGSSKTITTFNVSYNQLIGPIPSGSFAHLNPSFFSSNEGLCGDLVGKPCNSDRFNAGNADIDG

ecdTDR S162A mutant = molecular target: T2, ecdTDR S162A mutant (Arabidopsis thaliana, UniProt Q9FII5 30-642, S162A)
T2 construct: TDR/PXY of A. thaliana, extracellular domain, residues 30-642; source: High Five insect cells (baculovirus), secreted, purified as the wild type (Ni-NTA, size-exclusion chromatography)
T2 sequence (looked up): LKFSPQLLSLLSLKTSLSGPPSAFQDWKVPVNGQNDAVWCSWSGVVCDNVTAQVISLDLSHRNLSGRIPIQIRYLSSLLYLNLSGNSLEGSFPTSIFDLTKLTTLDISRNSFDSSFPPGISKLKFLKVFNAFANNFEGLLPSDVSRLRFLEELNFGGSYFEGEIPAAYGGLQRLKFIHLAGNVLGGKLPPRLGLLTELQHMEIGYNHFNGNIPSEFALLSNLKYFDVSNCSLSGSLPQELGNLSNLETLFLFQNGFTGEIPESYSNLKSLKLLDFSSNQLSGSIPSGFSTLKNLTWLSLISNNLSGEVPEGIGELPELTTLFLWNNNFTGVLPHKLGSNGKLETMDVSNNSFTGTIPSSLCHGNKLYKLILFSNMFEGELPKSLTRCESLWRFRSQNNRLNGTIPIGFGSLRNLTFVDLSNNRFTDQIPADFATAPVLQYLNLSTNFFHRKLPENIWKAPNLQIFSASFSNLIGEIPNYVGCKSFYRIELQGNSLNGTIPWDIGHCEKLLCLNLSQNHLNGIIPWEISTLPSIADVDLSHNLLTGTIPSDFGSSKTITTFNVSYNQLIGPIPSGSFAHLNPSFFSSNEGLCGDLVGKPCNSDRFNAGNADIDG

ecdTDR W353A mutant = molecular target: T3, ecdTDR W353A mutant (Arabidopsis thaliana, UniProt Q9FII5 30-642, W353A)
T3 construct: TDR/PXY of A. thaliana, extracellular domain, residues 30-642; source: High Five insect cells (baculovirus), secreted, purified as the wild type (Ni-NTA, size-exclusion chromatography)
T3 sequence (looked up): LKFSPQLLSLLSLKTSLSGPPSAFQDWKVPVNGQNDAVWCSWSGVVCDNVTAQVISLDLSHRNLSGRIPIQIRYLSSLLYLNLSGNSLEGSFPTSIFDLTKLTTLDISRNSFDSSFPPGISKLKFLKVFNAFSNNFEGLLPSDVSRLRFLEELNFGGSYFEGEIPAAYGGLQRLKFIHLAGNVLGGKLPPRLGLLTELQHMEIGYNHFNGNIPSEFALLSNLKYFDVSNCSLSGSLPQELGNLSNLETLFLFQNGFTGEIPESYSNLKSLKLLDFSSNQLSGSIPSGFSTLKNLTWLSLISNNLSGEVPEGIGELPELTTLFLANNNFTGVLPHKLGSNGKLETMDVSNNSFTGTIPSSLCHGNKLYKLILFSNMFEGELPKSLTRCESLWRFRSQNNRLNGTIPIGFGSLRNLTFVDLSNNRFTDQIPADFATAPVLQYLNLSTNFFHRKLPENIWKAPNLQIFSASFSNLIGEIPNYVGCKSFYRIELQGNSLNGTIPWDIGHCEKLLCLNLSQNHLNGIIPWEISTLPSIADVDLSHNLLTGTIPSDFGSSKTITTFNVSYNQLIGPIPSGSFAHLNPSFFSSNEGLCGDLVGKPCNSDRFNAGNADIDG

[1] = molecular target: T4, ecdTDR Y253 alanine mutant (Arabidopsis thaliana, UniProt Q9FII5 30-642, alanine substitution of Y253)
T4 construct: TDR/PXY of A. thaliana, extracellular domain, residues 30-642; The text says only 'mutational studies' of Y253; source: High Five insect cells (baculovirus), secreted, purified as the wild type (Ni-NTA, size-exclusion chromatography)
T4 sequence (looked up): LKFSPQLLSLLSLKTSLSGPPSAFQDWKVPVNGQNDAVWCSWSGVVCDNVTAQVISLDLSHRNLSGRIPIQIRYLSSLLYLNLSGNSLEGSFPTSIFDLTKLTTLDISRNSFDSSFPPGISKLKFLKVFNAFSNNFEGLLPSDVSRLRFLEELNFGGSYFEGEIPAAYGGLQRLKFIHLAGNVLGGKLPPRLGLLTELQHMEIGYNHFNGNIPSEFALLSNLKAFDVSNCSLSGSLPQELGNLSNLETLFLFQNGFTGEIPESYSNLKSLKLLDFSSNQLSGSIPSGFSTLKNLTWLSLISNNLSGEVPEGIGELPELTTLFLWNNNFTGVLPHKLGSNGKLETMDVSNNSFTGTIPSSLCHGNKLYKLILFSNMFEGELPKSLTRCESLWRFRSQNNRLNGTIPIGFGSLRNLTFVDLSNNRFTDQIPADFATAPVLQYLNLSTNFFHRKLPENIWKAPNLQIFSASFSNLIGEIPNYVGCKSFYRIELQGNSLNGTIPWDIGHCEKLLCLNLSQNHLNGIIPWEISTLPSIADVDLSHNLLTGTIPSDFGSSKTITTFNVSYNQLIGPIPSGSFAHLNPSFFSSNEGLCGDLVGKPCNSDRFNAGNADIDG

B1: Tracheary Element Differentiation Inhibitory Factor (TDIF) peptide (peptide)
peptide: HEV[Hyp]SG[Hyp]NPISN
notes: TDIF, the 12-residue CLE peptide processed from CLE41 and CLE44 of A. thaliana; printed as HEV(Hyp)SG(Hyp)NPISN; numbers count on: the 12-residue peptide; CLE44 encodes the same peptide; also called wild type TDIF; wtTDIF; source: synthetic peptide (peptide 2.0)
Q: Does B1 bind (ecdTDR R138A mutant)?
A: binds

Q: Does B1 bind (ecdTDR S162A mutant)?
A: binds

Q: What about the “fold lower binding than wild-type ecdTDR” value (ecdTDR W353A mutant) of the same binder?
A: 8.4 fold

Q: Does B1 bind [1]?
A: binds
